Results taken from patent US20150344570A1 (published 2015).

T1: FcγRIIa R (human, UniProt P12318 34-217)
T1 construct: extracellular domain; also called FcgRIIa R type; 2aR
T1 sequence (looked up): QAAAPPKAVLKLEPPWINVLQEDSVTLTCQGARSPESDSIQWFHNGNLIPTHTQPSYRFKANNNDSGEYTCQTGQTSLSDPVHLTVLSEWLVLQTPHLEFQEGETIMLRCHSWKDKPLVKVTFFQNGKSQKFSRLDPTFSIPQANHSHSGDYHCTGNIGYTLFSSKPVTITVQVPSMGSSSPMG

B1: GpH7-A5/GpH7-B3 variant I332_06M/GpL16-k0 (antibody, human IgG1, kappa)
heavy 1: not shown
heavy 2: not shown
light: DIVMTQSPLSLPVTPGEPASISCQASESLVHSNRNTYLHWYLQKPGQSPQLLIYKVSNRFSGVPDRFSGSGSGTDFTLKISRVEAEDVGVYYCSQNTHVPPTFGQGTKVEIERTVAAPSVFIFPPSDEQLKSGTASVVCLLNNFYPREAKVQWKVDNALQSGNSQESVTEQDSKDSTYSLSSTLTLSKADYEKHKVYACEVTHQGLSSPVTKSFNRGEC
notes: also called He Ab I332_06M
B2: GpH7-A5/GpH7-B3 variant L234_09D/GpL16-k0 (antibody, human IgG1, kappa)
heavy 1: not shown
heavy 2: not shown
light: B1 light
notes: also called He Ab L234_09D
B3: GpH7-A5/GpH7-B3 variant L328_13S/GpL16-k0 (antibody, human IgG1, kappa)
heavy 1: not shown
heavy 2: not shown
light: B1 light
notes: also called He Ab L328_13S
B4: GpH7-A5/GpH7-B3 variant K334_04F/GpL16-k0 (antibody, human IgG1, kappa)
heavy 1: not shown
heavy 2: not shown
light: B1 light
notes: also called He Ab K334_04F
B5: GpH7-A5/GpH7-B3 variant L328_09D/GpL16-k0 (antibody, human IgG1, kappa)
heavy 1: not shown
heavy 2: not shown
light: B1 light
notes: also called He Ab L328_09D
B6: GpH7-A5/GpH7-B3 variant K326_20W/GpL16-k0 (antibody, human IgG1, kappa)
heavy 1: not shown
heavy 2: not shown
light: B1 light
notes: also called He Ab K326_20W
B7: GpH7-A5/GpH7-B3 variant L234_10E/GpL16-k0 (antibody, human IgG1, kappa)
heavy 1: not shown
heavy 2: not shown
light: B1 light
notes: also called He Ab L234_10E
B8: GpH7-A5/GpH7-B3 variant L235_04F/GpL16-k0 (antibody, human IgG1, kappa)
heavy 1: not shown
heavy 2: not shown
light: B1 light
notes: also called He Ab L235_04F
B9: GpH7-A5/GpH7-B3 variant K334_10E/GpL16-k0 (antibody, human IgG1, kappa)
heavy 1: not shown
heavy 2: not shown
light: B1 light
notes: also called He Ab K334_10E
B10: GpH7-A5/GpH7-B3 variant L235_09D/GpL16-k0 (antibody, human IgG1, kappa)
heavy 1: not shown
heavy 2: not shown
light: B1 light
notes: also called He Ab L235_09D
B11: GpH7-A5/GpH7-B3 variant L328_10E/GpL16-k0 (antibody, human IgG1, kappa)
heavy 1: not shown
heavy 2: not shown
light: B1 light
notes: also called He Ab L328_10E
B12: GpH7-A5/GpH7-B3 variant N325_07I/GpL16-k0 (antibody, human IgG1, kappa)
heavy 1: not shown
heavy 2: not shown
light: B1 light
notes: also called He Ab N325_07I
B13: GpH7-A5/GpH7-B3 variant L328_02A/GpL16-k0 (antibody, human IgG1, kappa)
heavy 1: not shown
heavy 2: not shown
light: B1 light
notes: also called He Ab L328_02A
B14: GpH7-A5/GpH7-B3 variant K334_20W/GpL16-k0 (antibody, human IgG1, kappa)
heavy 1: not shown
heavy 2: not shown
light: B1 light
notes: also called He Ab K334_20W
B15: GpH7-A5/GpH7-B3 variant K334_02A/GpL16-k0 (antibody, human IgG1, kappa)
heavy 1: not shown
heavy 2: not shown
light: B1 light
notes: also called He Ab K334_02A
B16: GpH7-A5/GpH7-B3 variant N325_08L/GpL16-k0 (antibody, human IgG1, kappa)
heavy 1: not shown
heavy 2: not shown
light: B1 light
notes: also called He Ab N325_08L
B17: GpH7-A5/GpH7-B3 variant K326_03V/GpL16-k0 (antibody, human IgG1, kappa)
heavy 1: not shown
heavy 2: not shown
light: B1 light
notes: also called He Ab K326_03V
B18: GpH7-A5/GpH7-B3 variant I336_06M/GpL16-k0 (antibody, human IgG1, kappa)
heavy 1: not shown
heavy 2: not shown
light: B1 light
notes: also called He Ab I336_06M
B19: GpH7-A5/GpH7-B3 variant I332_14T/GpL16-k0 (antibody, human IgG1, kappa)
heavy 1: not shown
heavy 2: not shown
light: B1 light
notes: also called He Ab I332_14T
B20: GpH7-A5/GpH7-B3 variant L328_14T/GpL16-k0 (antibody, human IgG1, kappa)
heavy 1: not shown
heavy 2: not shown
light: B1 light
notes: also called He Ab L328_14T
B21: GpH7-A5/GpH7-B3 variant K334_05P/GpL16-k0 (antibody, human IgG1, kappa)
heavy 1: not shown
heavy 2: not shown
light: B1 light
notes: also called He Ab K334_05P
B22: GpH7-A5/GpH7-B3 variant K326_18N/GpL16-k0 (antibody, human IgG1, kappa)
heavy 1: not shown
heavy 2: not shown
light: B1 light
notes: also called He Ab K326_18N
B23: GpH7-A5/GpH7-B3 variant K334_13S/GpL16-k0 (antibody, human IgG1, kappa)
heavy 1: not shown
heavy 2: not shown
light: B1 light
notes: also called He Ab K334_13S
B24: GpH7-A5/GpH7-B3 variant N325_14T/GpL16-k0 (antibody, human IgG1, kappa)
heavy 1: not shown
heavy 2: not shown
light: B1 light
notes: also called He Ab N325_14T
B25: GpH7-A5/GpH7-B3 variant K326_15Y/GpL16-k0 (antibody, human IgG1, kappa)
heavy 1: not shown
heavy 2: not shown
light: B1 light
notes: also called He Ab K326_15Y
B26: GpH7-A5/GpH7-B3 variant L234_04F/GpL16-k0 (antibody, human IgG1, kappa)
heavy 1: not shown
heavy 2: not shown
light: B1 light
notes: also called He Ab L234_04F
B27: GpH7-A5/GpH7-B3 variant K326_07I/GpL16-k0 (antibody, human IgG1, kappa)
heavy 1: not shown
heavy 2: not shown
light: B1 light
notes: also called He Ab K326_07I
B28: GpH7-A5/GpH7-B3 variant K326_04F/GpL16-k0 (antibody, human IgG1, kappa)
heavy 1: not shown
heavy 2: not shown
light: B1 light
notes: also called He Ab K326_04F
B29: GpH7-A5/GpH7-B3 variant N325_04F/GpL16-k0 (antibody, human IgG1, kappa)
heavy 1: not shown
heavy 2: not shown
light: B1 light
notes: also called He Ab N325_04F
B30: GpH7-A5/GpH7-B3 variant N325_10E/GpL16-k0 (antibody, human IgG1, kappa)
heavy 1: not shown
heavy 2: not shown
light: B1 light
notes: also called He Ab N325_10E
B31: GpH7-A5/GpH7-B3 variant L235_20W/GpL16-k0 (antibody, human IgG1, kappa)
heavy 1: not shown
heavy 2: not shown
light: B1 light
notes: also called He Ab L235_20W
B32: GpH7-A5/GpH7-B3 variant K334_19Q/GpL16-k0 (antibody, human IgG1, kappa)
heavy 1: not shown
heavy 2: not shown
light: B1 light
notes: also called He Ab K334_19Q
B33: GpH7-A5/GpH7-B3 variant N325_03V/GpL16-k0 (antibody, human IgG1, kappa)
heavy 1: not shown
heavy 2: not shown
light: B1 light
notes: also called He Ab N325_03V
B34: GpH7-A5/GpH7-B3 variant L235_15Y/GpL16-k0 (antibody, human IgG1, kappa)
heavy 1: not shown
heavy 2: not shown
light: B1 light
notes: also called He Ab L235_15Y
B35: GpH7-A5/GpH7-B3 variant I336_08L/GpL16-k0 (antibody, human IgG1, kappa)
heavy 1: not shown
heavy 2: not shown
light: B1 light
notes: also called He Ab I336_08L
B36: GpH7-A5/GpH7-B3 variant K326_08L/GpL16-k0 (antibody, human IgG1, kappa)
heavy 1: not shown
heavy 2: not shown
light: B1 light
notes: also called He Ab K326_08L
B37: GpH7-A5/GpH7-B3 variant K334_12R/GpL16-k0 (antibody, human IgG1, kappa)
heavy 1: not shown
heavy 2: not shown
light: B1 light
notes: also called He Ab K334_12R
B38: GpH7-A5/GpH7-B3 variant I336_18N/GpL16-k0 (antibody, human IgG1, kappa)
heavy 1: not shown
heavy 2: not shown
light: B1 light
notes: also called He Ab I336_18N
B39: GpH7-A5/GpH7-B3 variant L234_20W/GpL16-k0 (antibody, human IgG1, kappa)
heavy 1: not shown
heavy 2: not shown
light: B1 light
notes: also called He Ab L234_20W
B40: GpH7-A5/GpH7-B3 variant N325_13S/GpL16-k0 (antibody, human IgG1, kappa)
heavy 1: not shown
heavy 2: not shown
light: B1 light
notes: also called He Ab N325_13S
B41: GpH7-A5/GpH7-B3 variant K326_12R/GpL16-k0 (antibody, human IgG1, kappa)
heavy 1: not shown
heavy 2: not shown
light: B1 light
notes: also called He Ab K326_12R
B42: GpH7-A5/GpH7-B3 variant K334_08L/GpL16-k0 (antibody, human IgG1, kappa)
heavy 1: not shown
heavy 2: not shown
light: B1 light
notes: also called He Ab K334_08L
B43: GpH7-A5/GpH7-B3 variant N325_06M/GpL16-k0 (antibody, human IgG1, kappa)
heavy 1: not shown
heavy 2: not shown
light: B1 light
notes: also called He Ab N325_06M
B44: GpH7-A5/GpH7-B3 variant N325_09D/GpL16-k0 (antibody, human IgG1, kappa)
heavy 1: not shown
heavy 2: not shown
light: B1 light
notes: also called He Ab N325_09D

Target: T1, FcγRIIa R
Assay: SPR (Biacore), captured antibody, FcγR as analyte; relative binding activity

Binder	He/Con_2aR
B1	109 % (GpH7-A5/GpH7-B3/GpL16-k0 = 100)
B2	122 % (GpH7-A5/GpH7-B3/GpL16-k0 = 100)
B3	117 % (GpH7-A5/GpH7-B3/GpL16-k0 = 100)
B4	110 % (GpH7-A5/GpH7-B3/GpL16-k0 = 100)
B5	119 % (GpH7-A5/GpH7-B3/GpL16-k0 = 100)
B6	131 % (GpH7-A5/GpH7-B3/GpL16-k0 = 100)
B7	112 % (GpH7-A5/GpH7-B3/GpL16-k0 = 100)
B8	114 % (GpH7-A5/GpH7-B3/GpL16-k0 = 100)
B9	106 % (GpH7-A5/GpH7-B3/GpL16-k0 = 100)
B10	101 % (GpH7-A5/GpH7-B3/GpL16-k0 = 100)
B11	105 % (GpH7-A5/GpH7-B3/GpL16-k0 = 100)
B12	133 % (GpH7-A5/GpH7-B3/GpL16-k0 = 100)
B13	117 % (GpH7-A5/GpH7-B3/GpL16-k0 = 100)
B14	105 % (GpH7-A5/GpH7-B3/GpL16-k0 = 100)
B15	105 % (GpH7-A5/GpH7-B3/GpL16-k0 = 100)
B16	144 % (GpH7-A5/GpH7-B3/GpL16-k0 = 100)
B17	141 % (GpH7-A5/GpH7-B3/GpL16-k0 = 100)
B18	106 % (GpH7-A5/GpH7-B3/GpL16-k0 = 100)
B19	105 % (GpH7-A5/GpH7-B3/GpL16-k0 = 100)
B20	119 % (GpH7-A5/GpH7-B3/GpL16-k0 = 100)
B21	103 % (GpH7-A5/GpH7-B3/GpL16-k0 = 100)
B22	115 % (GpH7-A5/GpH7-B3/GpL16-k0 = 100)

Binder	He/Con_2aR
B23	109 % (GpH7-A5/GpH7-B3/GpL16-k0 = 100)
B24	105 % (GpH7-A5/GpH7-B3/GpL16-k0 = 100)
B25	136 % (GpH7-A5/GpH7-B3/GpL16-k0 = 100)
B26	104 % (GpH7-A5/GpH7-B3/GpL16-k0 = 100)
B27	147 % (GpH7-A5/GpH7-B3/GpL16-k0 = 100)
B28	135 % (GpH7-A5/GpH7-B3/GpL16-k0 = 100)
B29	120 % (GpH7-A5/GpH7-B3/GpL16-k0 = 100)
B30	105 % (GpH7-A5/GpH7-B3/GpL16-k0 = 100)
B31	131 % (GpH7-A5/GpH7-B3/GpL16-k0 = 100)
B32	109 % (GpH7-A5/GpH7-B3/GpL16-k0 = 100)
B33	108 % (GpH7-A5/GpH7-B3/GpL16-k0 = 100)
B34	129 % (GpH7-A5/GpH7-B3/GpL16-k0 = 100)
B35	110 % (GpH7-A5/GpH7-B3/GpL16-k0 = 100)
B36	137 % (GpH7-A5/GpH7-B3/GpL16-k0 = 100)
B37	111 % (GpH7-A5/GpH7-B3/GpL16-k0 = 100)
B38	104 % (GpH7-A5/GpH7-B3/GpL16-k0 = 100)
B39	108 % (GpH7-A5/GpH7-B3/GpL16-k0 = 100)
B40	143 % (GpH7-A5/GpH7-B3/GpL16-k0 = 100)
B41	103 % (GpH7-A5/GpH7-B3/GpL16-k0 = 100)
B42	106 % (GpH7-A5/GpH7-B3/GpL16-k0 = 100)
B43	152 % (GpH7-A5/GpH7-B3/GpL16-k0 = 100)
B44	116 % (GpH7-A5/GpH7-B3/GpL16-k0 = 100)
